Earlier results as cited in paper PMC8393563.

Target: PGRMC1 (Homo sapiens) (UniProt O00264)

## PGRMC1 (from UniProt O00264)
  Kd: < 3.5 µM
